This note sets out measurements from patent US20260049138A1 (Chugai, published 2026).

B1: GLS3000 N53L one-arm antibody (antibody, human IgG1, kappa, L234A L235A, N297A, name in Kabat numbering)
heavy: QVQLVESGGGVVQPGRSLRLSCAASGFTFSNAWMHWVRQAPGKGLEWVAQIKAKSNNYATYYAESVKGRFTISRDDSKNSLYLQMNSLKTEDTAVYYCRYVHYGAYYGVDAWGQGTTVTVSSASTKGPSVFPLAPSSKSTSGGTAALGCLVKDYFPEPVTVSWNSGALTSGVHTFPAVLQSSGLYSLSSVVTVPSSSLGTQTYICNVNHKPSNTKVDKKVEPKSCDKTHTCPPCPAPEAAGGPSVFLFPPKPKDTLMISRTPEVTCVVVDVSHEDPEVKFNWYVDGVEVHNAKTKPREEQYASTYRVVSVLTVLHQDWLNGKEYKCKVSNKALPAPIEKTISKAKGQPREPQVYTLPPSRCELTKNQVSLSCAVKGFYPSDIAVEWESNGQPENNYKTTPPVLDSDGSFFLVSKLTVDKSRWQQGNVFSCSVMHEALHNHYTQKSLSLSPDYKDDDDK
chain: EPKSSDKTHTCPPCPAPELLGGPSVFLFPPKPKDTLMISRTPEVTCVVVDVSHEDPEVKFNWYVDGVEVHNAKTKPREEQYNSTYRVVSVLTVLHQDWLNGKEYKCKVSNKALPAPIEKTISKAKGQPREPQVCTLPPSRDELTKNQVSLWCLVKGFYPSDIAVEWESNGQPENNYKTTPPVLDSDGSFFLYSKLTVDKSRWQQGNVFSCSVMHEALHNRYTQKSLSLSP
light: DIVMTQSPLSLPVTPGEPASISCRSSQSLVHSNRNTYLHWYQQKPGQAPRLLIYKVSLRFSGVPDRFSGSGSGTDFTLKISRVEAEDVGVYYCGQGTQVPYTFGQGTKLEIKRTVAAPSVFIFPPSDEQLKSGTASVVCLLNNFYPREAKVQWKVDNALQSGNSQESVTEQDSKDSTYSLSSTLTLSKADYEKHKVYACEVTHQGLSSPVTKSFNRGEC
B2: GLS3000 N53Q one-arm antibody (antibody, human IgG1, kappa, L234A L235A, N297A, name in Kabat numbering)
heavy: QVQLVESGGGVVQPGRSLRLSCAASGFTFSNAWMHWVRQAPGKGLEWVAQIKAKSNNYATYYAESVKGRFTISRDDSKNSLYLQMNSLKTEDTAVYYCRYVHYGAYYGVDAWGQGTTVTVSSASTKGPSVFPLAPSSKSTSGGTAALGCLVKDYFPEPVTVSWNSGALTSGVHTFPAVLQSSGLYSLSSVVTVPSSSLGTQTYICNVNHKPSNTKVDKKVEPKSCDKTHTCPPCPAPEAAGGPSVFLFPPKPKDTLMISRTPEVTCVVVDVSHEDPEVKFNWYVDGVEVHNAKTKPREEQYASTYRVVSVLTVLHQDWLNGKEYKCKVSNKALPAPIEKTISKAKGQPREPQVYTLPPSRCELTKNQVSLSCAVKGFYPSDIAVEWESNGQPENNYKTTPPVLDSDGSFFLVSKLTVDKSRWQQGNVFSCSVMHEALHNHYTQKSLSLSPDYKDDDDK
chain: EPKSSDKTHTCPPCPAPELLGGPSVFLFPPKPKDTLMISRTPEVTCVVVDVSHEDPEVKFNWYVDGVEVHNAKTKPREEQYNSTYRVVSVLTVLHQDWLNGKEYKCKVSNKALPAPIEKTISKAKGQPREPQVCTLPPSRDELTKNQVSLWCLVKGFYPSDIAVEWESNGQPENNYKTTPPVLDSDGSFFLYSKLTVDKSRWQQGNVFSCSVMHEALHNRYTQKSLSLSP
light: DIVMTQSPLSLPVTPGEPASISCRSSQSLVHSNRNTYLHWYQQKPGQAPRLLIYKVSQRFSGVPDRFSGSGSGTDFTLKISRVEAEDVGVYYCGQGTQVPYTFGQGTKLEIKRTVAAPSVFIFPPSDEQLKSGTASVVCLLNNFYPREAKVQWKVDNALQSGNSQESVTEQDSKDSTYSLSSTLTLSKADYEKHKVYACEVTHQGLSSPVTKSFNRGEC
B3: GLS3000 N53M one-arm antibody (antibody, human IgG1, kappa, L234A L235A, N297A, name in Kabat numbering)
heavy: QVQLVESGGGVVQPGRSLRLSCAASGFTFSNAWMHWVRQAPGKGLEWVAQIKAKSNNYATYYAESVKGRFTISRDDSKNSLYLQMNSLKTEDTAVYYCRYVHYGAYYGVDAWGQGTTVTVSSASTKGPSVFPLAPSSKSTSGGTAALGCLVKDYFPEPVTVSWNSGALTSGVHTFPAVLQSSGLYSLSSVVTVPSSSLGTQTYICNVNHKPSNTKVDKKVEPKSCDKTHTCPPCPAPEAAGGPSVFLFPPKPKDTLMISRTPEVTCVVVDVSHEDPEVKFNWYVDGVEVHNAKTKPREEQYASTYRVVSVLTVLHQDWLNGKEYKCKVSNKALPAPIEKTISKAKGQPREPQVYTLPPSRCELTKNQVSLSCAVKGFYPSDIAVEWESNGQPENNYKTTPPVLDSDGSFFLVSKLTVDKSRWQQGNVFSCSVMHEALHNHYTQKSLSLSPDYKDDDDK
chain: EPKSSDKTHTCPPCPAPELLGGPSVFLFPPKPKDTLMISRTPEVTCVVVDVSHEDPEVKFNWYVDGVEVHNAKTKPREEQYNSTYRVVSVLTVLHQDWLNGKEYKCKVSNKALPAPIEKTISKAKGQPREPQVCTLPPSRDELTKNQVSLWCLVKGFYPSDIAVEWESNGQPENNYKTTPPVLDSDGSFFLYSKLTVDKSRWQQGNVFSCSVMHEALHNRYTQKSLSLSP
light: DIVMTQSPLSLPVTPGEPASISCRSSQSLVHSNRNTYLHWYQQKPGQAPRLLIYKVSMRFSGVPDRFSGSGSGTDFTLKISRVEAEDVGVYYCGQGTQVPYTFGQGTKLEIKRTVAAPSVFIFPPSDEQLKSGTASVVCLLNNFYPREAKVQWKVDNALQSGNSQESVTEQDSKDSTYSLSSTLTLSKADYEKHKVYACEVTHQGLSSPVTKSFNRGEC
B4: GLS3000 N53S one-arm antibody (antibody, human IgG1, kappa, L234A L235A, N297A, name in Kabat numbering)
heavy: QVQLVESGGGVVQPGRSLRLSCAASGFTFSNAWMHWVRQAPGKGLEWVAQIKAKSNNYATYYAESVKGRFTISRDDSKNSLYLQMNSLKTEDTAVYYCRYVHYGAYYGVDAWGQGTTVTVSSASTKGPSVFPLAPSSKSTSGGTAALGCLVKDYFPEPVTVSWNSGALTSGVHTFPAVLQSSGLYSLSSVVTVPSSSLGTQTYICNVNHKPSNTKVDKKVEPKSCDKTHTCPPCPAPEAAGGPSVFLFPPKPKDTLMISRTPEVTCVVVDVSHEDPEVKFNWYVDGVEVHNAKTKPREEQYASTYRVVSVLTVLHQDWLNGKEYKCKVSNKALPAPIEKTISKAKGQPREPQVYTLPPSRCELTKNQVSLSCAVKGFYPSDIAVEWESNGQPENNYKTTPPVLDSDGSFFLVSKLTVDKSRWQQGNVFSCSVMHEALHNHYTQKSLSLSPDYKDDDDK
chain: EPKSSDKTHTCPPCPAPELLGGPSVFLFPPKPKDTLMISRTPEVTCVVVDVSHEDPEVKFNWYVDGVEVHNAKTKPREEQYNSTYRVVSVLTVLHQDWLNGKEYKCKVSNKALPAPIEKTISKAKGQPREPQVCTLPPSRDELTKNQVSLWCLVKGFYPSDIAVEWESNGQPENNYKTTPPVLDSDGSFFLYSKLTVDKSRWQQGNVFSCSVMHEALHNRYTQKSLSLSP
light: DIVMTQSPLSLPVTPGEPASISCRSSQSLVHSNRNTYLHWYQQKPGQAPRLLIYKVSSRFSGVPDRFSGSGSGTDFTLKISRVEAEDVGVYYCGQGTQVPYTFGQGTKLEIKRTVAAPSVFIFPPSDEQLKSGTASVVCLLNNFYPREAKVQWKVDNALQSGNSQESVTEQDSKDSTYSLSSTLTLSKADYEKHKVYACEVTHQGLSSPVTKSFNRGEC
B5: GLS3000 N53R one-arm antibody (antibody, human IgG1, kappa, L234A L235A, N297A, name in Kabat numbering)
heavy: QVQLVESGGGVVQPGRSLRLSCAASGFTFSNAWMHWVRQAPGKGLEWVAQIKAKSNNYATYYAESVKGRFTISRDDSKNSLYLQMNSLKTEDTAVYYCRYVHYGAYYGVDAWGQGTTVTVSSASTKGPSVFPLAPSSKSTSGGTAALGCLVKDYFPEPVTVSWNSGALTSGVHTFPAVLQSSGLYSLSSVVTVPSSSLGTQTYICNVNHKPSNTKVDKKVEPKSCDKTHTCPPCPAPEAAGGPSVFLFPPKPKDTLMISRTPEVTCVVVDVSHEDPEVKFNWYVDGVEVHNAKTKPREEQYASTYRVVSVLTVLHQDWLNGKEYKCKVSNKALPAPIEKTISKAKGQPREPQVYTLPPSRCELTKNQVSLSCAVKGFYPSDIAVEWESNGQPENNYKTTPPVLDSDGSFFLVSKLTVDKSRWQQGNVFSCSVMHEALHNHYTQKSLSLSPDYKDDDDK
chain: EPKSSDKTHTCPPCPAPELLGGPSVFLFPPKPKDTLMISRTPEVTCVVVDVSHEDPEVKFNWYVDGVEVHNAKTKPREEQYNSTYRVVSVLTVLHQDWLNGKEYKCKVSNKALPAPIEKTISKAKGQPREPQVCTLPPSRDELTKNQVSLWCLVKGFYPSDIAVEWESNGQPENNYKTTPPVLDSDGSFFLYSKLTVDKSRWQQGNVFSCSVMHEALHNRYTQKSLSLSP
light: DIVMTQSPLSLPVTPGEPASISCRSSQSLVHSNRNTYLHWYQQKPGQAPRLLIYKVSRRFSGVPDRFSGSGSGTDFTLKISRVEAEDVGVYYCGQGTQVPYTFGQGTKLEIKRTVAAPSVFIFPPSDEQLKSGTASVVCLLNNFYPREAKVQWKVDNALQSGNSQESVTEQDSKDSTYSLSSTLTLSKADYEKHKVYACEVTHQGLSSPVTKSFNRGEC
B6: GLS3000 N53P one-arm antibody (antibody, human IgG1, kappa, L234A L235A, N297A, name in Kabat numbering)
heavy: QVQLVESGGGVVQPGRSLRLSCAASGFTFSNAWMHWVRQAPGKGLEWVAQIKAKSNNYATYYAESVKGRFTISRDDSKNSLYLQMNSLKTEDTAVYYCRYVHYGAYYGVDAWGQGTTVTVSSASTKGPSVFPLAPSSKSTSGGTAALGCLVKDYFPEPVTVSWNSGALTSGVHTFPAVLQSSGLYSLSSVVTVPSSSLGTQTYICNVNHKPSNTKVDKKVEPKSCDKTHTCPPCPAPEAAGGPSVFLFPPKPKDTLMISRTPEVTCVVVDVSHEDPEVKFNWYVDGVEVHNAKTKPREEQYASTYRVVSVLTVLHQDWLNGKEYKCKVSNKALPAPIEKTISKAKGQPREPQVYTLPPSRCELTKNQVSLSCAVKGFYPSDIAVEWESNGQPENNYKTTPPVLDSDGSFFLVSKLTVDKSRWQQGNVFSCSVMHEALHNHYTQKSLSLSPDYKDDDDK
chain: EPKSSDKTHTCPPCPAPELLGGPSVFLFPPKPKDTLMISRTPEVTCVVVDVSHEDPEVKFNWYVDGVEVHNAKTKPREEQYNSTYRVVSVLTVLHQDWLNGKEYKCKVSNKALPAPIEKTISKAKGQPREPQVCTLPPSRDELTKNQVSLWCLVKGFYPSDIAVEWESNGQPENNYKTTPPVLDSDGSFFLYSKLTVDKSRWQQGNVFSCSVMHEALHNRYTQKSLSLSP
light: DIVMTQSPLSLPVTPGEPASISCRSSQSLVHSNRNTYLHWYQQKPGQAPRLLIYKVSPRFSGVPDRFSGSGSGTDFTLKISRVEAEDVGVYYCGQGTQVPYTFGQGTKLEIKRTVAAPSVFIFPPSDEQLKSGTASVVCLLNNFYPREAKVQWKVDNALQSGNSQESVTEQDSKDSTYSLSSTLTLSKADYEKHKVYACEVTHQGLSSPVTKSFNRGEC

In the assay the target is T1, CD3ε homodimer protein (human, UniProt P07766 23-126, limits assumed).
T1 construct: also called CD3 (CD3ε)
T1 sequence (P07766 23-126 limits assumed): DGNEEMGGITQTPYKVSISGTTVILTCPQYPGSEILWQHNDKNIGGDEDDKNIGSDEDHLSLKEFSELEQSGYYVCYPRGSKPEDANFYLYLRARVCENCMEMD
As to the kind of experiment: SPR Biacore T200, CD3ε homodimer on chip.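 Also: Light-chain single-residue variant antibodies injected over amine-coupled CD3ε homodimer on a CM4 chip at 25 °C, bound amount divided by that of the GLS3000-containing antibody.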
Turning to B1, the “ratio of amount bound vs unaltered GLS3000” value (“ratio of amount bound” for short) was determined as 0.56. Turning to B2, the “ratio of amount bound” value was 0.77. As for B3, the figure is 0.62; as for B4, 0.69; as for B5, 1.58.

For the molecule B6, the “ratio of amount bound” value stood at 0.81.
